{"source": "paper PMC3034196", "origin": "cited, not measured here", "target": "alkaline protease (Pseudomonas aeruginosa) (UniProt Q03023)", "sequence (Q03023 10-479)": "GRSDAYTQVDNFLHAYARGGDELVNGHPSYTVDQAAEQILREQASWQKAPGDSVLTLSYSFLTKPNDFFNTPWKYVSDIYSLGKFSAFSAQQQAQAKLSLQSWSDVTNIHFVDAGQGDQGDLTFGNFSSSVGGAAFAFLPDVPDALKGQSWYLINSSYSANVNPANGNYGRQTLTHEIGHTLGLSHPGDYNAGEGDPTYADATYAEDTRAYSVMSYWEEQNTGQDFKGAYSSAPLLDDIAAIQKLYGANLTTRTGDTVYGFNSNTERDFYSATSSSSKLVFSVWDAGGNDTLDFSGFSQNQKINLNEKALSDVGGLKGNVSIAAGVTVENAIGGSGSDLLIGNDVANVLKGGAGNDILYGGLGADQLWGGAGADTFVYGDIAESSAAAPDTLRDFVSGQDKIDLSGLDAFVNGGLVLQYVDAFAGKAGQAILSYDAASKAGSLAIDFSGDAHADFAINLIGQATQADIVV", "data": [{"substance": "APRin (alkaline protease inhibitor) (from UniProt Q03026)", "values": [{"measurement": "Kd", "result": 4, "unit": "pM"}]}]}
